Assay results taken from publication PMC12748588, “Cryo-EM structures of plant Augmin reveal coiled-coil assembly, antiparallel dimerization, and NEDD1 binding” (Nature Communications, 2025).

T1: AUG5 with C-terminal 8xHis tag (subunit of the hetero-octamer) (A. thaliana, UniProt Q9FMB4 1-796)
T1 construct: AUGMIN subunit 5 (AUG5), A. thaliana; subunit ORF in pET3a, assembled into the eight-subunit polycistronic vector; Subunit of m1; the assembly was captured on Ni-IDA by this chain; also called AUG5 (His); not shown: His8, C-terminal, kept
T1 sequence (looked up): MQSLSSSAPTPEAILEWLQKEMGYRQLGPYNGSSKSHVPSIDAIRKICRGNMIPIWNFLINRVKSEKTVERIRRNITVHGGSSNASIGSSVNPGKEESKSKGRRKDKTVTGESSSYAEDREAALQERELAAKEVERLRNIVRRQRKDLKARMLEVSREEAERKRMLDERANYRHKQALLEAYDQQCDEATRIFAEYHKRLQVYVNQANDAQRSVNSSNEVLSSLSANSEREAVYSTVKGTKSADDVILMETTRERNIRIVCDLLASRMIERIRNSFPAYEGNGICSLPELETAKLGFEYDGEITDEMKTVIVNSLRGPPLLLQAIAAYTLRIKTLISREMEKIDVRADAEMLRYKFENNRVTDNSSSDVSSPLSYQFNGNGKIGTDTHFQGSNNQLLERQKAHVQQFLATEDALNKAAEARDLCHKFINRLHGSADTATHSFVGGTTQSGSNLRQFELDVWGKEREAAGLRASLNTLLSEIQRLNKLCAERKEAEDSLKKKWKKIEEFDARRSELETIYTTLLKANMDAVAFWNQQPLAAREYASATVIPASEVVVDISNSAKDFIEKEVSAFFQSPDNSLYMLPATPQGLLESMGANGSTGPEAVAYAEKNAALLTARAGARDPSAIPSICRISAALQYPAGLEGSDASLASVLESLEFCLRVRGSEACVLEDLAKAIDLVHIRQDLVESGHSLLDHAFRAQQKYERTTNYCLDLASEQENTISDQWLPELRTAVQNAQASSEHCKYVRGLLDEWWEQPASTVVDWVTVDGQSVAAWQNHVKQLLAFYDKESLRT

T2: AUG5 with C-terminal GFP and His tags (subunit of the hetero-tetramer) (A. thaliana, UniProt Q9FMB4 1-796)
T2 construct: AUGMIN subunit 5 (AUG5), A. thaliana; subunit ORF in the four-subunit polycistronic vector; Subunit of m2; source: E. coli SoluBL21, co-expressed with AUG1, AUG3 and AUG4, purified as part of the assembly (Ni-IDA, Q-FF, Superdex 200); not shown: His tag, C-terminal, kept
T2 sequence (looked up): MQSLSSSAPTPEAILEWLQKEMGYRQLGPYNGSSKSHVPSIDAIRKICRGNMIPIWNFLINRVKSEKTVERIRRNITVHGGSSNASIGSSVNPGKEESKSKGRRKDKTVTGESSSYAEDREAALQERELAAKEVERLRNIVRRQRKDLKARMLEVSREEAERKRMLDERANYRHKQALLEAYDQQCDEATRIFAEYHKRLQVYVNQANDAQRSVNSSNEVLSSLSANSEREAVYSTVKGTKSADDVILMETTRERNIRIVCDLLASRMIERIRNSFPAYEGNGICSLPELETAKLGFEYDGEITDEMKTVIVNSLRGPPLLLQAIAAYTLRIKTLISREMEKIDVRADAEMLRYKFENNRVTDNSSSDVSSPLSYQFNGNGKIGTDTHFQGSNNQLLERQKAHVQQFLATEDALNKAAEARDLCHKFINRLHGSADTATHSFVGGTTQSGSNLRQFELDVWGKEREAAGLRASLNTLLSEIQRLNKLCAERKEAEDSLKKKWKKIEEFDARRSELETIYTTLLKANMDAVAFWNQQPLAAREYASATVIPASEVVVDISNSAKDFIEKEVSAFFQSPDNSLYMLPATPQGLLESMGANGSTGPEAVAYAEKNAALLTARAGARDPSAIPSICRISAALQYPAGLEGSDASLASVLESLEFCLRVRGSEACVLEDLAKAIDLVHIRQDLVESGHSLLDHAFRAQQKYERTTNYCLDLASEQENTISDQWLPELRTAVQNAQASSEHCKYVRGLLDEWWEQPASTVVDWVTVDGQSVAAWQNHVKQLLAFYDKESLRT


What was measured:
Assay in all cases: SEC-MALS + other: mass photometry; co-expressed assemblies purified by Ni-IDA (AUG5 His tag), Q-FF and gel filtration; subunits confirmed by SDS-PAGE and mass spectrometry; SEC-MALS on Superdex 200 Increase 10/300, 200 µL at 1 mg/mL, 50 mM HEPES pH 7.5, 200 mM KCl, 1 mM MgCl2, 1 mM EGTA
[1] = molecular target: AUG5 with C-terminal 8xHis tag (subunit of the hetero-octamer) (A. thaliana) (UniProt Q9FMB4)
[2] = molecular target: T1, AUG5 with C-terminal 8xHis tag (subunit …); settings: both partners purified
[3] = molecular target: T2, AUG5 with C-terminal GFP and His tags …; settings: both partners purified

Chain of AUG8 C-terminal region (residues 383-644) (Q9SUH5 383-644): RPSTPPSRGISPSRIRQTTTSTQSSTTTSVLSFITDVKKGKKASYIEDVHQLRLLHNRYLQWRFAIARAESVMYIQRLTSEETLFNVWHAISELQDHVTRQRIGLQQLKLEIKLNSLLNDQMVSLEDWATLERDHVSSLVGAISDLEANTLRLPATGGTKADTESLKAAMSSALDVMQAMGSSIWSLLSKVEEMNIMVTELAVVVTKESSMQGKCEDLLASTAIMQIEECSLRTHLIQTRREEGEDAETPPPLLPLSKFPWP

Row | Molecule | stoichiometry N (subunit per assembly) [1] | stoichiometry N [2] [subunit per assembly] | stoichiometry N [3] [subunit per assembly]
1 | AUG8 C-terminal region (residues 383-644) (from UniProt Q9SUH5 383-644) (domain or fragment) | 1 | – | –
2 | AUG7 (A. thaliana Augmin subunit 7) (natural protein, UniProt Q0WTP1 1-329, looked up, AUGMIN subunit 7 (AUG7), A. thaliana; codon-optimised ORF in pET3a, assembled into a polycistronic vector; N-terminal CH domain; Subunit of m1; source: E. coli SoluBL21, co-expressed with the other Augmin subunits, purified as part of the assembly) MAAKQMEEIQKKLRLLSYPRANAPAQSLLFAGMERYALLEWLFFKLLGDKSPFSQQNLQGDAGVRDEETVRIQYLAEIAKFLGITPTVDIEAIQGHGTYEDRMEMLRNIVDLVEASLFSDNQEWSIDEQVAKDIQLIDAIAERQSLIFSEECKLFPADVQIQSIYPLPDVSELETKLSEQAKILSNLQQKVDDLAAKHAYNPDEEYTEVESQLRARLESFLETARAFNTIYTKEIRPWTHMMEVPQLHGFGPAANRLLEAYNMLLKFLGNLKNLRDSHAALSIGSSGTVAGEPSSVTRIVSDCEAALTVLNRDLGILSASIAREQGERL | – | 1 | –
3 | AUG6 with C-terminal StrepII tag (natural protein, A. thaliana, UniProt Q94BP7 1-741, looked up, AUGMIN subunit 6 (AUG6), A. thaliana; ORF in pET3a, assembled into a polycistronic vector; N-terminal CH domain; its C-terminal region is prone to degradation; Subunit of m1; also called AUG6-StrepII; source: E. coli SoluBL21, co-expressed with the other Augmin subunits, purified as part of the assembly) MTMDREKERELELESAMYTNCLLLGLDPNVIGLGASNGTPRVGLFRHSNPKLGEQLLYFILSSLRGPAQSSKDFDKVWPIFDSAQSRDFRKVVQAIISELESQGALPRSNSRVSSLATCCGPRFVELLWQLSLHALREVHRRTFPADVASNPLPSSLTDVSFSHAATLLPVTKARIVLERRRFLKNAETAVQRQAMWSNLAHEMTAEFRGLCAEEAYLQQELEKLNDLRNKVKQEGEVWDDLVSSSSQNSHLVSKATRLWDSIMARKGQHEVLASGPIEDLIAHREHRYRISGSALLAAMDQSSQVPRAELLSAHSDDSASLADDKELSDGSYTNMHDHSLVDSFETASSQASDETLSRVDDRGGKINQTVDVAEVIRRWTHALQRIHKQSLLLAKANDGDGPDILRTASDGGTSGHVESLAATLTEHQQHLASFQVLINQLKEVSPAIQKSISECTEMVNSLPPTLPPVTRSNGQASSLLQSQGSGRIMEGVSNDVAELTSTMSNVQLEKVSASPTLKLPQLFSSTPTSSGKGGNGQKRQTMASQVNKMESLSEKNSTDQALSNARPDNLPTDTSSSFVHNLKKSVREAALLIPSSAGSSRDSQSDEGSEHYFVPLSATGFSRFPSETKALPLRGSRALTSLSEPSFLEPNVPDSFAPSKYSDIPDTYDDLDSFKDYDNGNGFLSVAGSNSVASDAQQSFYDIDDQVFSPPLLMDSSLLSDAYEDLLAPLSETEAALMEH | – | 1 | –
4 | AUG2 (A. thaliana Augmin subunit 2) (natural protein, UniProt O48767 1-296, looked up, AUGMIN subunit 2 (AUG2), A. thaliana; codon-optimised ORF in pET3a, assembled into a polycistronic vector; Subunit of m1; source: E. coli SoluBL21, co-expressed with the other Augmin subunits, purified as part of the assembly) MSMGGDTTWVGKKPIRRIGGLSDALSIASDLGFAVAPPPSQEELQSFASSNGERGDDLIRVLRELSVVQRKIADLQVELQGRKDDKNVAHLTHVGEMQKKIETLSRITQILKDVIQNKDRIIARLQQPYSLDCIPVEAEYQKQFSELLMKAASDYGALTASVSDFQWSQNFKEPPSVWGEMLRPIPVALASCTRFFEAMSAMRESFATLQELRVGNSAVSLPTTPGGNEMTHRDSDCVTPPQGRIESSFDDLAVHKTRRQNNDQNEEEEEEEEEEDGNNNGNRRLSWPPSVKKSSV | – | 1 | –
5 | AUG3 (A. thaliana Augmin subunit 3) (natural protein, UniProt Q0WQE7 1-617, looked up, AUGMIN subunit 3 (AUG3), A. thaliana; subunit ORF in pET3a, assembled into polycistronic vectors; Subunit of m1 and m2; source: E. coli SoluBL21, co-expressed with the other Augmin subunits, purified as part of the assembly) MSSARLCSLVAELGYEGAGKLDPDSFEWPFQYDDARPILDWICSSLRPSNVLSLAELSLYEQFQRDGKLLEGDDLDQAYDSISAFSSRRNNQEAVFGAEESIKEVRDATLAHKAEALELQRQLRRLQTQYDLLTGQSSALIQGRRARVAATSAVSGQITAIEDSLSARNLQMNGVLGRLASTSQELAHYHSGEEDGIYLAYSDFHAYLAGDSACTKELNQWFAKQLDTGPYRLVAEEGKSKCSWVSLDDTSNMLRDLEKSQHQRVAELQRLRSIFGTSERQWIEAQVENAKQQAILLTLKSQVTSVEAHIHFDLHSLRRKHADLVEEISTLYQKEEKLLSETIPELCWELAQLQDTYILQGDYDLKVMRQELYISKQKVFINHLVNQLARHQFLKLACQLEKKNMLGAFSLLKVIESELQGYLSATRSRVGRCSALIQAASDVQEQGAVDDRDSFLHGVRDLLSIHSNTQAGLSTYVSAPAIIQQIVALQSDLSSLQSDLENSLPDDRNRCINELCTHIQNLQQLLFASSTTAQPILTPWPLMKELDEMGKINSKLSTAVEEVTLEHRNKREIVKHHAKDVELQRRVFVDFFCNPERLRNQVRELNALVRARQASSS | – | 1 | 1
6 | AUG1 (A. thaliana Augmin subunit 1) (natural protein, UniProt F4IK01 1-299, looked up, AUGMIN subunit 1 (AUG1), A. thaliana; subunit ORF in pET3a, assembled into polycistronic vectors; Subunit of m1 and m2; source: E. coli SoluBL21, co-expressed with the other Augmin subunits, purified as part of the assembly) MSDVTGDLAAVSEAKGGSDAARISEVKAWLTSQFEAVGKEVPNFEYTHRSITHLYNLATASQAKSQAATIVANDFRLKASEYRAQAARIREILESAGMSQESLPSNVVSSAQVLANVANLLNIRDTELSSFLVAMGDISLRKTGVEEKRAKAQKESNALLDYTRKAIQRLTYLKKILAQLEDDVVPCESQMENWKTNLEVMAVKEEQYIQQYKKYEQMLLNRVGYTPKISHRELVEMAEHRKELDKMTKPVLDTLRSYQDLPPDKALAALAIEDKKRQFTAAEKYLEEVLQSALETNDE | – | 1 | 1
7 | AUG4 (A. thaliana Augmin subunit 4) (natural protein, UniProt Q8GYM3 1-423, looked up, AUGMIN subunit 4 (AUG4), A. thaliana; subunit ORF in pET3a, assembled into polycistronic vectors; Subunit of m1 and m2; source: E. coli SoluBL21, co-expressed with the other Augmin subunits, purified as part of the assembly) MVKALQGAAQNLPADVNQLIDQLERHCLAPDGSLVTKSVYSDLQLAREEMSRERLRYLEAMAIYCEAVAMVEEYQQAISVANHGGIRDVQGLYPQLGLKNSPQVYETLEHRLVVAEAAQKLRLPLISDGGEIHEEEIEKWSILSRSSLDSASTSFTISSTSNSVNYANSSANSVAGGISLSAVDTDVVGGVPNRFLGITPAYLSYVQLQNTISMDMADYQMFLAREIEGRLKEKCDKLADAIVDDTDSSTGNRNSSARLPERVKFIIEEIERDEAALREDLYSADRKFAEYYNVLEQILGVLIKLVKDLKLEHQHKYNEMQKTWLCKRCETMNAKLRVLENVLLLETYTPDSISALHNIRNYLVEATEEASAAYNKAVTRLREYQGVDPHFDTIARQYHDIVKKLENMQWTIHQVEMDLKSHD | – | 1 | 1
